Our source for the OD560 (bound biotinylated VEGF-A) and OD560 (bound biotinylated PlGF) values is patent publication US20140271675A1 (Eli Lilly, published 2014).

Assay [1] addresses hVEGFR1-Fc (R&D 321-fl 050/cf) (human) (UniProt P17948). Briefly: competition ELISA, coated hVEGFR1-Fc, competitor biotin-hVEGFA-165 2 nM; control Ron antibody 0.0206 µg/ml.
The target is the same in assay [2]. Put plainly: competition ELISA, coated hVEGFR1-Fc, competitor biotin-hPLGF1 4 nM; control Ron antibody 0.1852 µg/ml. On the technique in general: ELISA stands for enzyme-linked immunosorbent assay.
Assay [3] shares this target. Put plainly: competition ELISA, coated hVEGFR1-Fc, competitor biotin-hVEGFA-165 2 nM; control Ron antibody 0.1852 µg/ml.
Assay [4] shares this target. Put plainly: competition ELISA, coated hVEGFR1-Fc, competitor biotin-hVEGFA-165 2 nM; control Ron antibody 0.0069 µg/ml.
The target is the same in assay [5]. Briefly: competition ELISA, coated hVEGFR1-Fc, competitor biotin-hPLGF1 2 nM; control Ron antibody 1.852 µg/ml.
Assay [6] shares this target. Briefly: competition ELISA, coated hVEGFR1-Fc, competitor biotin-hVEGFA-165 2 nM; control Ron antibody 50.000 µg/ml.
Assay [7] has the same target. Put plainly: competition ELISA, coated hVEGFR1-Fc, competitor biotin-hVEGFA-165 2 nM; control Ron antibody 0.0617 µg/ml.
Assay [8] has the same target. Put plainly: competition ELISA, coated hVEGFR1-Fc, competitor biotin-hPLGF1 4 nM; control Ron antibody 0.0023 µg/ml.

Chain of hVEGFR1-Fc (R&D 321-fl 050/cf) (human) (P17948 27-758): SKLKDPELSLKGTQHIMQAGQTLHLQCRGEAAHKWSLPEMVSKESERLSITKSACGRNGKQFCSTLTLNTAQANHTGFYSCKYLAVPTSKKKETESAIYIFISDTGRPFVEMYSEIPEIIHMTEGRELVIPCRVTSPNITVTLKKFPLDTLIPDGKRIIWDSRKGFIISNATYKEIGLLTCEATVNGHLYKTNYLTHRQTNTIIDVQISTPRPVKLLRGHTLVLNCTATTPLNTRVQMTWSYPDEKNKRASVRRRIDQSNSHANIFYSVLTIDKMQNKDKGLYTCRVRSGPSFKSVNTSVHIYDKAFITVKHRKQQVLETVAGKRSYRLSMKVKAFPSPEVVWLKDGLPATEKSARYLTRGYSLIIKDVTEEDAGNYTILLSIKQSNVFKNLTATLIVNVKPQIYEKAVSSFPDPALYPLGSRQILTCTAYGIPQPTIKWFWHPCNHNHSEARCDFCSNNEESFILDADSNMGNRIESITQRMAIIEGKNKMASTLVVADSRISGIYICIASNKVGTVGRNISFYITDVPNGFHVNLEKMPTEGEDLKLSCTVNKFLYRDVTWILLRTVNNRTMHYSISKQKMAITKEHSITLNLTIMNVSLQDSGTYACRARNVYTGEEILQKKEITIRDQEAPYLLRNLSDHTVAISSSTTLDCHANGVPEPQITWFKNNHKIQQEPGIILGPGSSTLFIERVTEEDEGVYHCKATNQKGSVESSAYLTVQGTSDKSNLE

Turning to control Ron antibody (R&D MAB691), the OD560 (bound biotinylated VEGF-A) in assay [1] amounted to 1.62 OD; in assay [3], 1.46 OD; in assay [4], 1.53 OD; in assay [6] it was 0.515 OD; in assay [7], 1.51 OD. Also, the values for the OD560 (bound biotinylated PlGF) in assay [2], in assay [5] and in assay [8] were 0.405 OD, 0.3 OD and 0.359 OD, respectively.
